54 molecules from article PMC314469, “Protein Interaction Networks by Proteome Peptide Scanning” (PLoS Biology, 2004) can be followed below.

T1: Myo5 SH3 (MYO5_YEAST), Q04439
T1 chain: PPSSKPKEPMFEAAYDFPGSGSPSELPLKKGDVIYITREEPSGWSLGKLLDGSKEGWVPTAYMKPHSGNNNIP

This experiment deals with T1, Myo5 SH3 (MYO5_YEAST), Q04439. Briefly: SPOT array.
In the case of ALRKFGYPFSPNDP [YPR097W 38-51], the normalised SPOT signal, Boehringer light units (BLU); mean over the file's lines of this peptide worked out at 166.
Take DARPFLKPVDPIAL [YDL070W 154-167]: the normalised SPOT signal, Boehringer light units (BLU); mean over the file's lines of this peptide stood at 126.
For APQPHLLPWLPPTD [YDL019C 1187-1200], the normalised SPOT signal, Boehringer light units (BLU); mean over the file's lines of this peptide was determined as 117.
The result for EAIKLGVPKGPLFA [YKR079C 211-224] reads 130; that for DLLGLSTPQSPTNS [YHR108W 433-446], 91.9.
Molecule ELFTFDMPTDPSSF [YCR091W 173-186] displayed a normalised SPOT signal, Boehringer light units (BLU); mean over the file's lines of this peptide of 44.9.
DLSVHTSPHGPIGS [YGR068C 274-287]: the normalised SPOT signal, Boehringer light units (BLU); mean over the file's lines of this peptide was found to be 186.
DFPLYKSPAFPSSS [YPR039W 19-32] had a normalised SPOT signal, Boehringer light units (BLU); mean over the file's lines of this peptide of 173.
The result for EAFKLPKPWSPNSH [YHR036W 272-285] reads 141; that for AFHELGIPVIPNPS [YDR232W 404-417], 193; that for APKKWKAPKGPKPT [YGL099W 6-19], 1010.
The result for ALNNWILPSTPHIQ [YHR197W 533-546] reads 169; that for EFDMLLLPFIPSID [YHR109W 353-366], 249.
DFSSYGPPGTPGYD [YLR342W 92-105]: the normalised SPOT signal, Boehringer light units (BLU); mean over the file's lines of this peptide amounted to 108.
Molecule ALDYLIPPPMPKNQ [YOL135C 61-74] showed a normalised SPOT signal, Boehringer light units (BLU); mean over the file's lines of this peptide of 131.
Molecule DFRLHYYPKDPSNV [YER172C 104-117] came in with a normalised SPOT signal, Boehringer light units (BLU); mean over the file's lines of this peptide of 77.7.
In the case of APKYYVPPGIPTND [YJL020C 199-212] it was 10400; in that of DLSYYLRPIKPFNT [Q0115 378-391], 161.
EAGDFEQPKGPAGA [YPL127C 99-112] displayed a normalised SPOT signal, Boehringer light units (BLU); mean over the file's lines of this peptide of 49.8.
In the case of DPNQLSTPPTPKSA [YGR070W 171-184] it was 166; in that of DLIHLDSPQQPNGY [YPL020C 565-578], 220.
For the molecule DFIKLMNPTLPSLK [YNL118C 54-67], the normalised SPOT signal, Boehringer light units (BLU); mean over the file's lines of this peptide was 152.
Take ELAEFTDPSSPVSE [YNL278W 118-131]: the normalised SPOT signal, Boehringer light units (BLU); mean over the file's lines of this peptide came to 189.
EADGLVQPVVPDKV [YER036C 364-377] displayed a normalised SPOT signal, Boehringer light units (BLU); mean over the file's lines of this peptide of 75.1.
APPALSAPSVPPVP [YJL020C 718-731] gave a normalised SPOT signal, Boehringer light units (BLU); mean over the file's lines of this peptide of 6580.
The molecule EEMGMEEPQAPEAF [YPL176C 44-57] had a normalised SPOT signal, Boehringer light units (BLU); mean over the file's lines of this peptide of 128.
The result for DLKEFNGPEPPIKR [YNL286W 144-157] reads 126.
ALKEMTHPIKPSAQ [YLR239C 27-40]: the normalised SPOT signal, Boehringer light units (BLU); mean over the file's lines of this peptide was 261.
AELLLGQPMFPGES [YMR139W 231-244] returned a normalised SPOT signal, Boehringer light units (BLU); mean over the file's lines of this peptide of 172.
APLLYSSPSEPMAY [YMR055C 139-152] came in with a normalised SPOT signal, Boehringer light units (BLU); mean over the file's lines of this peptide of 83.1.
EAYRLNYPELPRLT [YLR073C 184-197] displayed a normalised SPOT signal, Boehringer light units (BLU); mean over the file's lines of this peptide of 125.
On to AELMLRIPYLPGQN [YDL108W 196-209], for which the normalised SPOT signal, Boehringer light units (BLU); mean over the file's lines of this peptide is 236.
Regarding DPSLYQIPEPPRGG [YOR307C 21-34], the normalised SPOT signal, Boehringer light units (BLU); mean over the file's lines of this peptide worked out at 98.8.
On to EETEMLAPKLPEEN [YNR028W 128-141], for which the normalised SPOT signal, Boehringer light units (BLU); mean over the file's lines of this peptide is 81.6.
Molecule ALGFYRAPGSPAPA [YMR069W 242-255] showed a normalised SPOT signal, Boehringer light units (BLU); mean over the file's lines of this peptide of 101.
In turn, DARPFLQPVDPVKL [YLR399C 169-182] had a normalised SPOT signal, Boehringer light units (BLU); mean over the file's lines of this peptide of 179.
The result for APAPPPPPQMPAT [YOR181W 519-531] reads 7750.
As for EARPYSEPSEPEDS [YER162C 705-718], the normalised SPOT signal, Boehringer light units (BLU); mean over the file's lines of this peptide came to 208.
For DFNKFERPNIPVEE [YPL242C 282-295], the normalised SPOT signal, Boehringer light units (BLU); mean over the file's lines of this peptide came out at 212.
As for ALGIFFAPESPWWL [YDL247W 284-297], the normalised SPOT signal, Boehringer light units (BLU); mean over the file's lines of this peptide was 229.
As for ALYHLSNPNVPKLW [YBR112C 140-153], the normalised SPOT signal, Boehringer light units (BLU); mean over the file's lines of this peptide turned out to be 196.
DFVTLHVPATPETE [YER081W 252-265]: the normalised SPOT signal, Boehringer light units (BLU); mean over the file's lines of this peptide turned out to be 190.
DLMALKYPYFPTKM [YNL059C 225-238] had a normalised SPOT signal, Boehringer light units (BLU); mean over the file's lines of this peptide of 139.
Molecule EAHQHHQPPEPQPY [YDR432W 85-98] yielded a normalised SPOT signal, Boehringer light units (BLU); mean over the file's lines of this peptide of 0.
ALKSLSNPSSPWQQ [YDR283C 993-1006] returned a normalised SPOT signal, Boehringer light units (BLU); mean over the file's lines of this peptide of 30.3.
For AFHFWRPPIAPAEM [YDR230W 49-62], the normalised SPOT signal, Boehringer light units (BLU); mean over the file's lines of this peptide was found to be 1960.
Molecule AEVYYGPPTDPRKQ [YDR001C 32-45] displayed a normalised SPOT signal, Boehringer light units (BLU); mean over the file's lines of this peptide of 83.5.
The molecule EFSPHSTPVTPRRL [YGL003C 167-180] showed a normalised SPOT signal, Boehringer light units (BLU); mean over the file's lines of this peptide of 114.
Turning to DEFTLDLPRIPSLE [YBR123C 27-40], the normalised SPOT signal, Boehringer light units (BLU); mean over the file's lines of this peptide turned out to be 181.
In the case of ELEDFAFPDTPTIV [YBR221C 343-356], the normalised SPOT signal, Boehringer light units (BLU); mean over the file's lines of this peptide was 255.
For DPNAYMQPQVPVQM [YIL109C 92-105], the normalised SPOT signal, Boehringer light units (BLU); mean over the file's lines of this peptide amounted to 160.
In turn, APPALSAPSIPPVP [YJL020C 739-752] had a normalised SPOT signal, Boehringer light units (BLU); mean over the file's lines of this peptide of 10800.
The result for DELLLMSPELPADL [YHR186C 271-284] reads 16; that for ALDNFTLPGTPGFP [YLR370C 101-114], 181.
